Publication PMC4321881

Target: nascent chain-containing 60S ribosomal subunit (60S-RNC) (UniProt P35268)

Listerin, sequence (O94822 whole entry): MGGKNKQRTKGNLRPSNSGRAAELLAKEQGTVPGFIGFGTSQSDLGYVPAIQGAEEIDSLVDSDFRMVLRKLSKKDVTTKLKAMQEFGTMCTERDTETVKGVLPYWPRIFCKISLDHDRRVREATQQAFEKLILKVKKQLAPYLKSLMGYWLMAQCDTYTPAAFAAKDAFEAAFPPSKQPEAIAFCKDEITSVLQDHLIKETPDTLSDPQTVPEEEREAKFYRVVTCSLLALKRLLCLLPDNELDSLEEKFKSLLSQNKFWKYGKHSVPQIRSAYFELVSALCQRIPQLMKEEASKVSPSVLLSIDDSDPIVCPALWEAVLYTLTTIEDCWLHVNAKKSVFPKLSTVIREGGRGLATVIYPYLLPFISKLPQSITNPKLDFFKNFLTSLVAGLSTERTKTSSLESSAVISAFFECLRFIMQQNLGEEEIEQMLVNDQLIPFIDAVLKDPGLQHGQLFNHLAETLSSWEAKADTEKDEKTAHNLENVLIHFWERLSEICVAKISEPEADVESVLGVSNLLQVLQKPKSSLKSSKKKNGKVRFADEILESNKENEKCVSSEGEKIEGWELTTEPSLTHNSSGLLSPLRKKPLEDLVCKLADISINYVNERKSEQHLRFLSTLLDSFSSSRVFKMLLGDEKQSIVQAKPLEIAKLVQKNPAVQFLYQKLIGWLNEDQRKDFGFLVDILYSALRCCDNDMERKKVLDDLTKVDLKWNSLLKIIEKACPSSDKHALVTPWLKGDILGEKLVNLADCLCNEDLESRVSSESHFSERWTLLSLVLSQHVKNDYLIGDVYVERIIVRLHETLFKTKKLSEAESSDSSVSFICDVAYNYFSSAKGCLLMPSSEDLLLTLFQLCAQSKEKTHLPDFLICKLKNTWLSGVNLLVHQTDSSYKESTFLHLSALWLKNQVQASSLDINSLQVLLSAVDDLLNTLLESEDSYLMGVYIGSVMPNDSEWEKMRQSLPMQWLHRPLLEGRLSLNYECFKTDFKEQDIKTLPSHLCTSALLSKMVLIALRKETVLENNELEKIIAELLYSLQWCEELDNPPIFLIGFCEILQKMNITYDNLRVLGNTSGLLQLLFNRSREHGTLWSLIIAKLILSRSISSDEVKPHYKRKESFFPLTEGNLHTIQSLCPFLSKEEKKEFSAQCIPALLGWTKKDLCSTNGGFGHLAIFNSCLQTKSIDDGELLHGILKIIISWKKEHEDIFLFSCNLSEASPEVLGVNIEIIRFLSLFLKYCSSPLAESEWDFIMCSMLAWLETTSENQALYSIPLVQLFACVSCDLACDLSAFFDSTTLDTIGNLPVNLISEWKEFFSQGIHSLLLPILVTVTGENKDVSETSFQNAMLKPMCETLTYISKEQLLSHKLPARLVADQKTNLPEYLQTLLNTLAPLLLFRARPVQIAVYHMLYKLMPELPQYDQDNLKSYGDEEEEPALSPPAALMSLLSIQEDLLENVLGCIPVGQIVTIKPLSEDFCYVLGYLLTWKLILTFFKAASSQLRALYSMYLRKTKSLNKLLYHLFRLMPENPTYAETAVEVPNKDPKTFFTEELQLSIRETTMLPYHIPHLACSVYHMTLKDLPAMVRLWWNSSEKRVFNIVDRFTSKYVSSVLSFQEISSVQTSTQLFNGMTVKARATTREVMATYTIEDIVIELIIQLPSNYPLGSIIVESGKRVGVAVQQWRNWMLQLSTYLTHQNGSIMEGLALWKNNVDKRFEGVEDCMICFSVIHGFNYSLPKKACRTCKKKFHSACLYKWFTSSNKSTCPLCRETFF

## Listerin (from UniProt O94822 1-1766) (enzyme)
  poly-ubiquitination of the nascent chain-tRNA, purified NEMF titrated into reactions with 5 nM 80S-RNCs and 1.2 nM Listerin, relative to no NEMF: 3 to 5 fold
